Measurements reported in patent US20220054646A1 (Bicycle, published 2022).
Blank lines part the entries; values can stand above or below the binder they belong to. *1 amine or outer side, *2 acyl side, *3 side chain or, on linkers, in order; H or OH if unused. Bridges are numbered along the chain shown (N, C = ends). Where no end group is shown, it is not given here. TBMB = c1c(C[*:1])cc(C[*:3])cc1C[*:2]

Legend:
[1] = biological target: T1, Prostate-specific membrane antigen (PSMA) (human, UniProt Q04609 44-750, limits assumed); assay: fluorescence polarization assay, FP(h), PSMA
T1 construct: the construct used in the fluorescence polarization and enzyme assays is not described (methods cited from Shen et al 2013 and WO 2009/070302); also called Glutamate carboxypeptidase II; GCPII
T1 sequence (Q04609 44-750 limits assumed): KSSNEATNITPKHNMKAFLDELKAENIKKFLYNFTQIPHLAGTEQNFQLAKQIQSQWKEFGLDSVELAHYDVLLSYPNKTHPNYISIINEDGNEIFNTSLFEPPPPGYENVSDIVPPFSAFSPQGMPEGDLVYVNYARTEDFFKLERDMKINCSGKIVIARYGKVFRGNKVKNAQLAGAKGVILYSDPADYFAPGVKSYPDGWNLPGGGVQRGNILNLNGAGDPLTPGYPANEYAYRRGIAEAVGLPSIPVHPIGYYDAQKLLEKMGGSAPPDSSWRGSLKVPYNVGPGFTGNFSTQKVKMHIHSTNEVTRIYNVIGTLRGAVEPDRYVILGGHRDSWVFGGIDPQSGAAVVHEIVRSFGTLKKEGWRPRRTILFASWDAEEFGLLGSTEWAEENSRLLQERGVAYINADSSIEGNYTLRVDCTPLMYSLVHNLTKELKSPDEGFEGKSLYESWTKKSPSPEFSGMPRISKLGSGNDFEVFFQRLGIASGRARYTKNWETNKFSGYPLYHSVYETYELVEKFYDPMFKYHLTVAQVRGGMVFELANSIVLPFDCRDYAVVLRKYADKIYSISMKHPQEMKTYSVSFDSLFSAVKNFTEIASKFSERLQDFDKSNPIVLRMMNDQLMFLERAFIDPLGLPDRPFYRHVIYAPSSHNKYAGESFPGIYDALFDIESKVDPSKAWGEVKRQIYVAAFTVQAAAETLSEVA
Experimental: PSMA binding was measured using the fluorescence polarization assay methodology described in Shen et al (2013) PLOS ONE 8(7), e68339 and PSMA enzyme inhibition was measured using the methodology described in WO 2009/070302.

[2] = biological target: T1, Prostate-specific membrane antigen …; assay: cell-based or functional assay

Ki [1]: 70 nM
B1: 21-31-01-N001 (peptide)
peptide: CIECYIMEDGTCA
modifications: linker 1-4-12 via TBMB (inferred)
notes: Bicyclic peptide on TBMB scaffold

Enzyme inhibition IC50 [2]: 695 nM | Ki [1]: 40 nM
B2: 21-31-N002 (peptide)
peptide: ACMVCHMMEDGTCA
modifications: linker 2-5-13 via TBMB (inferred)
notes: as for B1

Ki [1]: 30 nM
B3: 21-31-04-T01-N007 (peptide)
peptide: EVCWDCFMMEDGTCAXXXXXXK
modifications: not fully specified; N-terminal acetyl (Ac); D-residue at the N-terminus (printed (D-E) / (D-Gln)); Sar6 = six sarcosine residues; C-terminal D-Lys; Ci, Cii and Ciii cyclised with TBMB (tri-substituted 1,3,5-trismethylbenzene scaffold)
notes: as for B1

Ki [1]: 6 nM
B4: 21-31-11-T01-N001 (peptide)
peptide: FCSECYMMEDGTCA
modifications: linker 2-5-13 via TBMB (inferred)
notes: as for B1
